Measurements as given in patent publication US20250346890A1, “LEUKEMIA TREATMENT” (Deutsches Krebsforschungszentrum, priority 2019, published 2025).

How the values were obtained:
[1] = molecular target: T1, extracellular domain of ALK3 (Homo sapiens, UniProt P36894); assay: In vitro binding assay RSPO / ALK3^ECD (Scatchard plot)
T1 construct: made in house; host or cells: HEK293T (conditioned medium)
Experimental: (§1) High binding 96-well plates (Greiner M5811) were coated with 2 μg ml^−1 of recombinant human RSPO1 (Peprotech 120-38), RSPO2 (Peprotech 120-43), RSPO3 (Peprotech 120-44) or FGF8b (Peprotech 100-25) recombinant protein reconstituted in bicarbonate coating buffer (50 mM NaHCO3, pH 9.6) overnight at 4° C. Coated wells were washed three times with TBST (TBS, 0.1% Tween-20) and blocked with 5% BSA in TBST for 1 hour at room temperature. 1.5 U ml^−1 of ALK3^ECD-AP or control conditioned medium was incubated overnight at 4° C. Wells were washed six times with TBST and bound AP activity was measured by the chemiluminescent SEAP Reporter Gene Assay kit (Abcam ab 133077). For ZNRF3-ALK3 binding assay, plates were coated with recombinant human ZNRF3 Fc Chimera protein (R&D systems 7994-RF). ALK3^ECD-AP was preincubated with RSPO2-Flag, RSPO2^ΔTSP-Flag conditioned medium or recombinant RSPO protein prior to treatment. Control conditioned medium and vesicles were used as control. […] Statistical analyses show unpaired t-tests.

[2] = test system: BMP4 signaling; assay: BRE reporter assay in HEPG2 cells stimulated by BMP4; type: cell-based, human
Experimental: BRE luciferase assays were executed using 300,000 ml^−1 of HEPG2 cells in 24-well plates. PGL3-BRE-Luciferase (500 ng ml^−1) and pRL-TK-Renilla plasmids (50 ng ml^−1) were transfected using Lipofectamine 3000. After 24 hours, cells were serum starved 2 hours and stimulated 14-16 hours with 80 ng ml^−1 recombinant human BMP4 protein (R&D systems 314-BP) along with AP tagged RSPO1-4 or flag tagged RSPO1-3 conditioned medium. Luciferase activity was measured with the Dual luciferase reporter assay system (Promega E1960). Firefly luminescence (BRE) was normalized to Renilla. TOPFlash luciferase assays were carried out as previously described (Berger et al. (2017), EMBO Rep 18, 712-725, doi: 10.15252/embr.201643585). […] Statistical analyses were made with the PRISM7 software using unpaired t-test or one-way ANOVA test. Not significant (ns) P>0.05, *P<0.05, **P<0.01, ***P<0.001, and ****P<0.0001.

[3] = molecular target: T2, ZNRF3 and ALK3^ECD (Homo sapiens, UniProt P36894+Q9ULT6); assay: In vitro binding assay for ZNRF3 and ALK3^ECD; details: plates coated with ZNRF3 Fc, ALK3^ECD-AP preincubated with the protein
T2 construct: purchased R&D systems 7994-RF
Experimental: as §1

[4] = molecular target: T3, ALK3RD (Homo sapiens, UniProt P36894, Q233D); assay: BRE reporter assay in HEPG2 cells with constitutively active ALK3; type: cell-based; details: RSPO treatment
T3 construct: expressed in transfected cells; host or cells: HEPG2
Source text: Alkaline phosphatase (AP) fusions with RSPOs (human RSPO1^ΔC-AP-pCDNA3, RSPO2^ΔC-AP-pCDNA3, RSPO2^ΔC-AP-pCS2+, RSPO3^ΔC-AP-pCDNA3, murine RSPO4^ΔC-pCDNA3) were generated by replacing the C-terminal domain (ΔC) by AP and used to produce conditioned media. Human RSPO2 wild-type (RSPO2), Furin1 and Furin2 deletion mutants (RSPO2^ΔFU), and TSP1 domain deletion mutant (RSPO2^ΔTSP) are ORFs lacking the C-terminal domain, C-terminally tagged with a Flag-tag and subcloned into pCS2+. R1-TSP^R2, R1-TSP^R2-AP and R1-TSP^R2-Flag plasmids were generated by fusion PCR and cloned in pCS2+. Conditioned media from all RSPO constructs were adjusted to equal concentration by western blot and AP activity measurement, and further validated by WNT reporter assay using HEK293T cells. The extracellular domain of ALK3 (ALK3^ECD) was subcloned in AP-pCS2+ for generating conditioned medium and used in in vitro binding assays. Constitutively active forms of ALK2,3,6 (ALK^QD) were generated by Gln-Asp mutations as described in Fujii et al. (1999), Mol Biol Cell 10, 3801-3813, doi: 10.1091/mbc.10.11.3801. HA-tagged ALK3 was a gift from Dr. D. Koinuma (Goto et al. (2007), J Biol Chem 282, 20603-20611, doi: 10.1074/jbc.M702100200). For Xenopus mRNA microinjection, Xenopus laevis BMP4-pCS2+, myc-tagged RSPO2^ΔC-myc-pCS2+, RSPO2^ΔFU-myc-pCS2+ and RSPO2^ΔTSP-myc-pCS2+ plasmids, DNALK3-pCS2+, membrane-RFP, EYFP-tagged human ALK3-pCS2+ were used for in vitro transcription. Human ZNRF3 and ZNRF3^ΔRING constructs were gifts from Dr. F. Cong (Novartis; Hao et al. (2012), Nature 485, 195-200, doi: 10.1038/nature11019), and ORFs were subcloned in flag-pCS2+ for in vitro transcription.
BRE luciferase assays were executed using 300,000 ml^−1 of HEPG2 cells in 24-well plates. PGL3-BRE-Luciferase (500 ng ml^−1) and pRL-TK-Renilla plasmids (50 ng ml^−1) were transfected using Lipofectamine 3000. […] Luciferase activity was measured with the Dual luciferase reporter assay system (Promega E1960). Firefly luminescence (BRE) was normalized to Renilla. […]

T2 sequence (Q9ULT6 56-219 limits assumed): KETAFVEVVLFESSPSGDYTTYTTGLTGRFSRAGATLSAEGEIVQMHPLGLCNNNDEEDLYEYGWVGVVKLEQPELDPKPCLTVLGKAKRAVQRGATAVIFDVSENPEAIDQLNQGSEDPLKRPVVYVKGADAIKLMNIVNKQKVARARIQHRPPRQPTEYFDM
T2 sequence (P36894 24-152 limits assumed): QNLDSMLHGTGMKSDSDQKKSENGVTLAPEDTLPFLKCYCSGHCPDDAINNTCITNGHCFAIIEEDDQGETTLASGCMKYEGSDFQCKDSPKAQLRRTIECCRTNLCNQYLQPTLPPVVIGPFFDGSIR
T3 sequence (P36894 24-532 Q233D): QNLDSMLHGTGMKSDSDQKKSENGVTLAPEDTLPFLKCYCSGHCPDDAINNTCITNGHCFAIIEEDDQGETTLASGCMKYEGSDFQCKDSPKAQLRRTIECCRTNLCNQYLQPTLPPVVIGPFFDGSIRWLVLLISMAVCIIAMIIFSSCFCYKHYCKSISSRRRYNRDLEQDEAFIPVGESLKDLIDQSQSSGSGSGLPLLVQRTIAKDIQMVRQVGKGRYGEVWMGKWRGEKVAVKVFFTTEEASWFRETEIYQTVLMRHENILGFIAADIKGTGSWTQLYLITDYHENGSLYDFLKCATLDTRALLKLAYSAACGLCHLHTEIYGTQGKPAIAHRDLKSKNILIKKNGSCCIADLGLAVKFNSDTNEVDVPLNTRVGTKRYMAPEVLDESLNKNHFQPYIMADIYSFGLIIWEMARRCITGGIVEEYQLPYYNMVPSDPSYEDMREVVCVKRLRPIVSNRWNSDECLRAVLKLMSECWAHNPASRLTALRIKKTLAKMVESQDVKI
T1 sequence (P36894 24-152 limits assumed): as the sequence (P36894 24-152 limits assumed) above

B1: RSPO2: human R-spondin 2 protein (SEQ ID NO:1); conditioned medium or recombinant (Peprotech 120-43) (protein, listed as Homo sapiens)
chain: MQFRLFSFALIILNCMDYSHCQGNRWRRSKRASYVSNPICKGCLSCSKDNGCSRCQQKLFFFLRREGMRQYGECLHSCPSGYYGHRAPDMNRCARCRIENCDSCFSKDFCTKCKVGFYLHRGRCFDECPDGFAPLEETMECVEGCEVGHWSEWGTCSRNNRTCGFKWGLETRTRQIVKKPVKDTILCPTIAESRRCKMTMRHCPGGKRTPKAKEKRNKKKKRKLIERAQEQHSVFLATDRANQ
Kd [1]: ~4.8 nM | BMP4 signaling ([2]; HEPG2 cells, BMP4 stimulation, treatment with RSPO protein): decreased BMP4 signaling | inhibition of BMP signaling by RSPO2 after knockdown of WNT pathway components ([2]; siRNA knockdown of β-catenin, LGR4/5, LRP5/6, DVL1/2/3 and ROR1/2): remained unaffected | ZNRF3 interaction with ALK3 in the presence of the protein [3]: interacted with ALK3 | BMP signaling induced by constitutively active ALK3 [4]: specifically inhibited
